Experimental findings from publication PMC3081313, “Factors Defining the Functional Oligomeric State of Escherichia coli DegP Protease” (PLoS ONE, 2011) are described below.

To fix the notation:
B1: proteolytically inactive DegP_(S210A) (enzyme, Escherichia coli, UniProt P0C0V0 27-474, looked up)
chain: AETSSATTAQQMPSLAPMLEKVMPSVVSINVEGSTTVNTPRMPRNFQQFFGDDSPFCQEGSPFQSSPFCQGGQGGNGGGQQQKFMALGSGVIIDADKGYVVTNNHVVDNATVIKVQLSDGRKFDAKMVGKDPRSDIALIQIQNPKNLTAIKMADSDALRVGDYTVAIGNPFGLGETVTSGIVSALGRSGLNAENYENFIQTDAAINRGNAGGALVNLNGELIGINTAILAPDGGNIGIGFAIPSNMVKNLTSQMVEYGQVKRGELGIMGTELNSELAKAMKVDAQRGAFVSQVLPNSSAAKAGIKAGDVITSLNGKPISSFAALRAQVGTMPVGSKLTLGLLRDGKQVNVNLELQQSSQNQVDSSSIFNGIEGAEMSNKGKDQGVVVNNVKTGTPAAQIGLKKGDVIIGANQQAVKNIAELRKVLDSKPSVLALNIQRGDSTIYLLMQ
notes: Escherichia coli DegP (HtrA, protease Do), periplasmic protease and chaperone, with the active-site change S210A; Number of copies depends on the sample: hexamer alone, 12-mer or 24-mer with substrate; also called HtrA_(S210A); DegP6

Data set [1] deals with the molecule itself. The experiment in a line: SEC; DegP_(S210A) alone (42 µM monomer), incubated in 50 mM HEPES pH 7.3 at 37°C for 10 min; Superdex 200 10/300 GL in 50 mM HEPES pH 7.3, 150 mM NaCl at 4°C. In general terms: In gel filtration, larger molecules generally elute earlier.
Data set [2] deals with the molecule itself. The experiment in a line: SEC; DegP_(S210A) (42 µM) mixed with full-length β-casein (42 µM; also in molar excess), 37°C 10 min in 50 mM HEPES pH 7.3; Superdex 200 in 50 mM HEPES pH 7.3, 150 mM NaCl at 4°C; peak fractions on SDS-PAGE.
Data set [3] deals with the molecule itself. The experiment in a line: SEC; DegP_(S210A) mixed with MDH peptide fragments, 37°C 10 min; Superdex 200 in 50 mM HEPES pH 7.3, 150 mM NaCl at 4°C.
Data set [4] concerns the target B1. The data set can be described thus: SEC; DegP_(S210A) (94 µM) mixed with P^+Z^+ peptide (376 µM), 37°C 10 min; Superdex 200 in 50 mM HEPES pH 7.3, 150 mM NaCl at 4°C. The conditions noted are these: both partners purified.
Data set [5] has as its target B1. The data set can be described thus: SEC; DegP_(S210A) (94 µM) mixed with P^−Z^+ peptide (376 µM), 37°C 10 min; Superdex 200 in 50 mM HEPES pH 7.3, 150 mM NaCl at 4°C. The conditions noted are these: both partners purified.

For B1, the “stoichiometry N” value in data set [1] was 6; in data set [2], 24; in data set [3], 12.

B2: PZ model peptide P^+Z^+ (peptide)
peptide: ALVLDMMYGGMRGYQV
notes: also called PepP^+Z^+; source: synthetic peptide (GenScript USA Inc.)
With B2, in data set [4], the binding result is on record as “binds”.

B3: PZ model peptide P^−Z^+ (peptide)
peptide: ALELDMMYGGMRGYQV
notes: as P^+Z^+ but the P motif altered from ALV to ALE; source: synthetic peptide (GenScript USA Inc.)
On to B3, for which the binding result in data set [5] was “binds”.

As usually defined, the stoichiometry N is the number of molecules, sites or subunits per partner or assembly.
